Experiments:
[1] = system: T1, O=[N+]([O-])c1ccc(O[C@@H]2O[C@H](CO)[C@@H](O)[C@H](O)[C@H]2O)cc1; assay: purified protein; type: biochemical, Talaromyces amestolkiae; conditions: sodium acetate 100 mM pH 4.0, 70 °C (standard reaction), 0.1% BSA
T1 construct: native enzyme secreted by T. amestolkiae, purified from culture (Mandels medium, glucose); signal peptide removed; glycosylated; gene codes for 857 aa; non-covalent dimer about 222 kDa; mature N-terminus YSPPAYP deduced from the cloning primer

[2] = system: O=[N+]([O-])c1ccccc1O[C@@H]1O[C@H](CO)[C@@H](O)[C@H](O)[C@H]1O; assay: purified protein; conditions: sodium acetate 100 mM pH 4.0, 70 °C (standard reaction), 0.1% BSA
[3] = target: β-glucosidase BGL-3 from Talaromyces amestolkiae (native enzyme) (Talaromyces amestolkiae); assay: SEC; Superose 12 column; native purified BGL-3; mass around 222 kDa against 107.0 kDa for the monomer by MALDI-TOF

stoichiometry N [3] | Substance | Km [1] | Vmax [1] | kcat [1] | kcat/Km [1] | Km [2] | Vmax [2] | kcat [2] | kcat/Km [2]
– | BGL-3 (β-glucosidase g377) (Talaromyces amestolkiae) | 140 ± 100 µM | 381 µmol/min/mg | 1360 s⁻¹ | 9.71e+06 M⁻¹ s⁻¹ | 140 ± 100 µM | 142 µmol/min/mg | 507 s⁻¹ | 3.43e+06 M⁻¹ s⁻¹
2 | β-glucosidase BGL-3 from Talaromyces amestolkiae (native enzyme) | – | – | – | – | – | – | – | –
